Results taken from article PMC8897276.
Read-outs that look alike come from different tables or passages of the source.

How the values were obtained:
[1] = target: A2Moo (ovomacroglobulin), the Xenopus laevis egg Alpha-2-Macroglobulin homolog (Xenopus laevis); assay: cryo-EM structure
[2] = target: A2Moo (ovomacroglobulin), the Xenopus laevis egg Alpha-2-Macroglobulin homolog (Xenopus laevis); assay: cryo-EM structure; remark: listed apart in the source

stoichiometry N [1]: 4
stoichiometry N [2]: 4
Substance: A2Moo (ovomacroglobulin), the Xenopus laevis egg Alpha-2-Macroglobulin homolog (from UniProt A0A8J1L4C4 1-1441) (natural protein)
